From patent US20030157108A1 come the findings set out here.

Where “and” joins values, the source holds several entries; their conditions need not be identical. Identical values can stand only once.

For assay [1], the target named is human FcγRIIIA(V158) (human) (UniProt P08637). Briefly: ELISA, E27 dimers at 0.12 µg/ml (by text and FIG. 10; footnote letters shifted); standard = HEK293. A general note: In an ELISA, binding on a coated surface is turned into a signal by an enzyme label.
Assay [2] has as its target human FcγRIIIA(F158) (human) (UniProt P08637). Description: ELISA, E27 dimers at 0.12 µg/ml (by text and FIG. 11; footnote letters shifted); standard = HEK293.
Assay [3] shares this target. Briefly: ELISA, E27 hexamers (E27:IgE complexes) at 0.12 µg/ml (by text and FIG. 12; footnote letters shifted); standard = HEK293.
The target in assay [4] is human FcγRIIIA(V158) (human) (UniProt P08637). Description: ELISA, E27 hexamers (E27:IgE complexes) at 0.12 µg/ml (by text and FIG. 13; footnote letters shifted); standard = HEK293.
Assay [5] addresses human FcγRIIIA(F158) (human) (UniProt P08637). Description: ELISA, Hu4D5 dimers at 1.11 µg/ml; standard = CHO-S.
Assay [6] concerns the target human FcγRIIIA(V158) (human) (UniProt P08637). The assay is described as above.
Assay [7] has the same target. Description: ELISA, Hu4D5 dimers; Table 2 prints 23.1 for the average.
Assay [8] deals with human FcγRIIIA(F158) (human) (UniProt P08637). Description: ELISA, Hu4D5 dimers at 1.11 µg/ml; standard = CHO-S; average of lots.
Assay [9] deals with human FcγRIIIA(V158) (human) (UniProt P08637). The assay is described as above.
Assay [10] deals with human FcγRIIIA(Phe158) full-length α-chain co-expressed with γ-chain on CHO cells (human) (UniProt P08637). Description: cell-based assay, Hu4D5 monomers on CHO cells transfected with FcγRIIIA α-chain and γ-chain (by text and FIG. 28; footnote letters shifted); standard = CHO-S.
For assay [11] the target is unchanged. Briefly: cell-based assay, Hu4D5 monomers on CHO cells transfected with FcγRIIIA α-chain and γ-chain (by text and FIG. 28; footnote letters shifted); standard = CHO-S; average of lots.

Sequence of human FcγRIIIA(F158) (human) (P08637 17-208 limits assumed): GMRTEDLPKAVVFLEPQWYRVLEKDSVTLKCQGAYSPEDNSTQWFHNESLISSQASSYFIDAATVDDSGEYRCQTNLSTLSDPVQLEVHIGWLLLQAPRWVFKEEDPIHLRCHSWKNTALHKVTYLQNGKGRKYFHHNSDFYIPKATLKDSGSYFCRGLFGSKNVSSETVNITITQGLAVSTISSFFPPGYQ
Sequence of human FcγRIIIA(V158) (human) (P08637 17-208 F176V limits assumed): as the sequence (P08637 17-208 limits assumed) above, with F160V counted along it
Sequence of human FcγRIIIA(Phe158) full-length α-chain co-expressed with γ-chain on CHO cells (human) (P08637 17-254, chain 1 of 2): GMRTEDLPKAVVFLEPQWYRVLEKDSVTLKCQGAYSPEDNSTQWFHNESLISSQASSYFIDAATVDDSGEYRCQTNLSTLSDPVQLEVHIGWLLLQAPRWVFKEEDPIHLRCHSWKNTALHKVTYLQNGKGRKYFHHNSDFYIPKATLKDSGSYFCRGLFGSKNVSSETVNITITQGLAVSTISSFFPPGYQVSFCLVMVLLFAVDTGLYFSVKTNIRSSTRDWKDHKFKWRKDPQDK
Sequence of human FcγRIIIA(Phe158) full-length α-chain co-expressed with γ-chain on CHO cells (human) (P30273 19-86, chain 2 of 2, further chain): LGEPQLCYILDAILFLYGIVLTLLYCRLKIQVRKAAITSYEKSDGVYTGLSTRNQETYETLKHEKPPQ

Regarding “anti-IgE antibody E27 expressed in CHO-DP12 cells on plates (CHO-P)”, the results for the ratio A(variant)/A(standard) at A490nm in [1], in assay [2] and in assay [3] were 0.32, 0.35 and 0.65, respectively.

With “E27 with S298A/E333A/K334A substitutions in the Fc region, expressed in HEK293 cells (antibody)”, the ratio A(variant)/A(standard) at A490nm is 1.87 in assay [3] and 1.15 in assay [4].

For the substance “anti-IgE antibody E27 expressed in Lec13 cells (fucose-deficient)”, the ratio A(variant)/A(standard) at A490nm in assay [1] amounted to 6.44; in [2] it was 7.63; in [3], 1.92.

In the case of “Hu4D5 with S298A/E333A/K334A substitutions in the Fc region, expressed in Lec13 cells (fucose-deficient) (antibody)”, the ratio A(variant)/A(standard) at A490nm in assay [5] was 32.8 and 32.9 and 34.8; in [6], 25.4 and 23.8 and 22.5; in assay [8], 33.5; in assay [9], 23.1. In assay [7], the fold improvement in binding came out at 21 fold. The ratio variant/standard in assay [10] was 26.8 and 25.9; in assay [11], 26.4.

As to “Hu4D5 with S298A/E333A/K334A substitutions in the Fc region, expressed in HEK293 cells (antibody)”, in assay [5], the ratio A(variant)/A(standard) at A490nm came out at 20.8.
